Reference: US6820011B2, “Three-dimensional structure of complement receptor type 2 and uses thereof” (The Regents of the University of Colorado, priority 2001, dated 2004)
“Also recorded” adds a separate entry of the source.

Target: T1, CR2 (Homo sapiens, UniProt P20023, G20A)
T1 sequence (P20023 20-153 G20A): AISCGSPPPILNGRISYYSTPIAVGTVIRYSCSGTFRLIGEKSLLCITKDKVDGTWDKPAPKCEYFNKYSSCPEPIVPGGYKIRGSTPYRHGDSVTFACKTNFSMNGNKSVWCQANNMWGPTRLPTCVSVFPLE
Test: native gel shift assay of the binding between CR2 and C3d wild type or mutants
Details: for interaction with CR2 (shift of C3d band to the complex form): 6% native polyacrylamide gel, same C3d concentration, increasing amount of CR2, compared with wild type C3d
Source text: Based on the complex structure, mutagenesis of C3d around the interface to disrupt CR2 binding was predicted to be difficult. This is because the interaction between CR2 and C3 d involves mostly main-chain H-bonding, and the side chain residues play relatively small roles in the binding. However, to confirm the accuracy of the CR2-C3d interaction seen in this co-crystal structure, two informative C3d mutants were constructed. In mutant 170 (mt170; SEQ ID NO:8), residue Asn170 was changed to Arg. Asn170 is located on H7 of C3d and is the only residue on C3d that more or less points directly toward CR2 in the interface (FIG. 3E). Asn170 also packs directly with Tyr81 of CR2 as well as forms an H-bond with CR2 (Lys100) through a water molecule (FIG. 3E).
Briefly, FIGS. 4A and 4B show a native gel shift assay of the binding between CR2 and C3d wild type (wt) or mutants (mt). […] The C3d band will be shifted to the upper part of the gel when it forms a complex with CR2. The C3d concentration (for both wt and mt) is the same throughout lanes 1-12. The CR2 added to each corresponding lanes for wt and mt C3d was also the same, e.g. same amount of CR2 was added to the C3d samples in lane 2, 6 and 10, or in lanes 4, 8 and 12. […] The same conclusion can be drawn by comparing the intensity of the bands of the complexes containing the wt, mt115 and mt170. FIG. 4B is a graphical representation showing the intensity changes of the complex bands (measured by densitometry) as CR2 concentration increases from lanes 2 to 4 (wt), or lanes 6 to 8 (mt115), or lanes 10 to 12 (mt170).
The result shown in this experiment is consistent with that predicted by the interaction interface seen in the complex structure. […] This is consistent with the complex structure in that all these three residues, even though located within the interface area, have their side chains pointing sideways and are not involved in the direct contact with CR2. The side chain of Glu117, however, participates in the Zn coordination. […] The coordinated Zn in the structure, therefore, could simply come from the crystallization buffer which contained ZnAcetate.

| Substance | interaction with CR2 (shift of C3d band to the complex form) | apparent affinity for CR2 from intensity of the complex bands (densitometry) (as CR2 concentration increases, FIG. 4B) |
| --- | --- | --- |
| mt115: C3d mutant Gln105Ala, Leu116Ala, Glu117Ala | completely shifted to the complex form; also recorded: no obvious effect on CR2 binding |  |
| mt170: C3d mutant, residue Asn170 changed to Arg (SEQ ID NO:8) | clearly less strong; also recorded: still contains an obvious C3d band | less apparent affinity for CR2 than wt and mt115 |
| wt: wild type human C3d (SEQ ID NO:7), CR2 ligand [reference compound] | completely shifted to the complex form |  |
